Laboratory results from patent US20160250177A1, “MODIFIED DOCETAXEL LIPOSOME FORMULATIONS AND USES THEREOF” (MALLINCKRODT LLC, priority 2015, published 2016).

Conditions: human, in vivo

Substance: distearoyl-phosphatidylethanolamine-N-[methoxy(polyethene glycol)-2000] [DSPE(PEG-2000)]
- CL (mean): 0.025 L/h/m^2
- Vss (mean): 1.409 L/m^2
- dose proportionality for Cmax and AUCinf: demonstrate dose proportionality
